Assay results: patent publication US10117953B2, “Antibody drug conjugates” (Novartis AG, priority 2013, dated 2018)

Legend:
[1] = test system: cKIT phosphorylation in Mo7e and GIST T-1 cells; experiment: Western blot for agonistic properties (15 minutes treatment); type: cell-based, human; details: 5 ug/ml
Protocol: To evaluate the potential agonistic properties of cKIT ADCs, 2×10^6 of GIST T-1 (kindly provided by Dr. Takahiro Taguchi, Kochi U., Japan) or Mo7e (DSMZ, ACC-104) cells were serum starved overnight at 37° C. with 5% CO2 (DMEM for GIST T-1 and RPMI for Mo7e supplemented with 0.1% FBS) in 6-well plate (NUNC catalog #14067). […] One well was designated as untreated (UT). Cells were harvested in 1 ml PBS. […] Lysates were then spun down for 40 mins at 12,000 rpm at 4° C. 20 μg of each sample was boiled for 10 min at 75° C. and loaded on a 12-well NuPAGEO 4-12% Bis-Tris gel (Life Technologies, NP0322BOX, Carlsbad, Calif.). After protein transfer to membrane blots, membranes were blocked in TBST-5% milk at room temperature for 1 hour and then probed with primary antibodies overnight at 4° C. Blots were washed in TBST (4×5 mins) on the next day. Blots were incubated in the secondary antibody (goat-anti rabbit-HRP 1:30,000, Santa Cruz) for 1 hr at room temperature. Blots were washed in TBST (4×5 mins) and developed. […]

primary human mast cells = experiment: Mast cell degranulation (β-hexosaminidase release); type: cell-based; details: 0.05-100 nM, 90 min
Protocol: Primary human mast cells were cultured from peripheral human blood according to the methods described by Saito et al., (supra). […] Cells were then centrifuged and the supernatants were transferred into 96-well black-walled plates prior to the addition of the β-hexosaminidase substrate. Following 90 min incubation at 37° C., the reaction was stopped by the addition of tris-base (Sigma, Cat # T1503-500G, pH 12, St. Louis, Mo.) and the fluorescence intensity was recorded on the Envision® plate reader.

[2] = test system: surface cKIT on GIST-T1 cells; experiment: Ab-mediated internalization of surface cKIT by flow cytometry; type: cell-based, human; details: 10 ug/ml, 30 min to 24 hr at 37° C.
Protocol: The kinetics of cKIT antibody mediated internalization was evaluated by treating with antibody in a cell monolayer using a temperature shift method and flow cytometry readout. GIST-T1 (kindly provided by Dr. Takahiro Taguchi, Kochi U., Japan) cells were seeded at 2.5×10E5 cells/well in five 12-well tissue culture treated plates (BD Falcon 353043). The cells were incubated in a tissue culture incubator at 37° C. with 5% CO2 overnight. The following day medium was removed and replaced with 450 ul fresh medium. […] All cells were incubated for 1 hr on ice, followed by two washes with 1 mL 1× Phosphate buffered saline (PBS) and resuspended in 500 μl cell culture medium. Plates #2-5 were transferred to 37° C. and harvested at time points; 30 min, 2 hr, 4 hr and 24 hr at 37° C. with 5% CO2. 100 μl of cell dissociation buffer (Gibco Cat#13150-016, Life Technologies, Carlsbad, Calif.) was added to plate#1 (4° C. binding control) and incubated at 37° C. until cells were detached. […] The following day, all samples were analyzed using the BD FACSCanto II® equipment using a HTS system (BD Biosciences, San Jose, Calif.). Samples were analyzed with FlowJo software to obtain the Geometric Mean values of fluorescence for the Phyeoerythrin channel, FIG. 13A is a plot of % of initial cell surface binding vs […] at 37° C.×100.

[3] = test system: Mo7e cells (SCF-dependent); experiment: Mo7e proliferation assay in presence of SCF; type: cell-based, human; details: 10 ng/ml SCF, 5 days
Protocol: To evaluate the potential antagonistic properties of the naked antibodies and the ability of the antibody drug conjugates (ADCs) to inhibit the proliferation of a cKIT-expressing cell line, MO7e (DSMZ, Catalog # ACC-104, Braunschweig, Del.) were grown in the presence or absence of cKIT ligand, Stem Cell Factor (SCF), for survival. MO7e cells were grown in either 10 ng/ml human granulocyte-macrophage colony-stimulating factor GM-CSF (R&D Systems Cat#215-GM, Minneapolis, Minn.) or 10 ng/ml human Stem Cell Factor SCF (R&D Systems Cat#255-SC) prior to seeding in 96 well plates (Costar Cat #3904, Corning, Tewksbury, Mass.) at 5000 cells/well in 100 μl dilution medium. A duplicate plate was generated for a day 0 measurement and all plates were incubated in a tissue culture incubator at 37° C. with 5% CO2 overnight. […] Assay plates were shaken gently for 20 min and the resulting luminescence intensity was measured using a Perkin Elmer 1450 Microbeta TriLux® plate reader (Perkin Elmer, Waltham, Mass.). […] Following this incubation period, relative cell viability was determined via the addition of Cell titer Glo reagent as described above. The effect of the ADCs on cell proliferation was calculated using the average of the duplicates as follows: (% Inhibition=(ADC or Ab treated)/(untreated)*100) The % inhibition data was fitted to a 4-parameter logistic equation and IC50 values were determined.

Sequence of surface cKIT on GIST-T1 cells (P10721 26-509 limits assumed): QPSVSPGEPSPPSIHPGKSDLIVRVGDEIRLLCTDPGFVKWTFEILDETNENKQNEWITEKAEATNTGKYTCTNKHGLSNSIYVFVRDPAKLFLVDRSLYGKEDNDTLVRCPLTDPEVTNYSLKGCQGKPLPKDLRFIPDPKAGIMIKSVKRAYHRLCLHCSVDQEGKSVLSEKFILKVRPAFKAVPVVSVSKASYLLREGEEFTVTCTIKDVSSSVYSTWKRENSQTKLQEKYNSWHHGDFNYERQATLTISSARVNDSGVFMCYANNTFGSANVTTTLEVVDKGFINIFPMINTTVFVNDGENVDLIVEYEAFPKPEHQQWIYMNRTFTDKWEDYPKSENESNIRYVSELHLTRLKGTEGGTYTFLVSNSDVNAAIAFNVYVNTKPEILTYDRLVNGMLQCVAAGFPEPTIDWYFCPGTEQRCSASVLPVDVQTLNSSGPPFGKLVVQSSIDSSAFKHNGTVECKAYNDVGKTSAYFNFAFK

B1: NEG085: anti-cKIT antibody of Table 1; VH SEQ ID NO 82, VL SEQ ID NO 91; derived from 9P3 (antibody, V domains shown)
VH: EVQLVESGGGLVQPGGSLRLSCAASGFAFSGYYMAWVRQAPGKGLEWVANINYPGSSTYYLDSVKGRFTISRDNAKNSLYLQMNSLRAEDTAVYYCARGDYYGTTYWYFDVWGQGTTVTVSS
VL: DIQMTQSPSSLSASVGDRVTITCRASQSISSYLNWYQQKPGKAPKLLIYYTSRLQSGVPSRFSGSGSGTDFTLTISSLQPEDFATYYCQQGRRLWSFGGGTKVEIK
For B1, the “downstream signaling (phospho ERK, phospho AKT)” value [1] was “downstream signaling pathways are not affected”, the “phosphorylation of cKIT” value ([1]; absence of ligand (SCF)) was “can mediate phosphorylation of cKIT in the absence of ligand (SCF)” and the mast cell degranulation (primary human mast cells) was “do not induce mast cell degranulation of human primary mast cells ex vivo”. The “internalization after binding cKIT on the cell surface” value [2] was “rapidly internalized into the cell” and the “inhibition of cell proliferation” value [3] was “do not have this effect”.
